In publication PMC9722645 (Structure (London, England : 1993), 2022):
Non-standard residues stand in square brackets, D forms with d. pY = N[C@@H](Cc1ccc(OP(=O)(O)O)cc1)C(=O)O

Experiments:
[1] = target: p190RhoGAP pY1087 peptide (Homo sapiens) (UniProt Q9NRY4); experiment: ITC; settings: cited from earlier work
[2] = target: p190RhoGAP pY1105 peptide (Homo sapiens) (UniProt Q9NRY4); experiment: ITC; settings: cited from earlier work
[3] = target: T1, p120RasGAP SH2-SH3-SH2 region (residues 174–444) (human, UniProt P20936 174-444, C236S | C261S | C372S | C402S); experiment: ITC
T1 sequence (looked up): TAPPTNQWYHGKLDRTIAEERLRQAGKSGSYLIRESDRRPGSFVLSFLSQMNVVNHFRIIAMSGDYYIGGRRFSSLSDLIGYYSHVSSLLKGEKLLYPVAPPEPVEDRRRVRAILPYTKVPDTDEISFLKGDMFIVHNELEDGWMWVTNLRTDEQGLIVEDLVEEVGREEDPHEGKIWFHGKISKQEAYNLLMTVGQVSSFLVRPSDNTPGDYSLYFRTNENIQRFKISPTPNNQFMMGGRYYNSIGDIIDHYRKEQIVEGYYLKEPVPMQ

Ras = settings: ref [3],[4]; cited from earlier work

Chain of p190RhoGAP pY1087 peptide (Homo sapiens) (Q9NRY4 whole entry): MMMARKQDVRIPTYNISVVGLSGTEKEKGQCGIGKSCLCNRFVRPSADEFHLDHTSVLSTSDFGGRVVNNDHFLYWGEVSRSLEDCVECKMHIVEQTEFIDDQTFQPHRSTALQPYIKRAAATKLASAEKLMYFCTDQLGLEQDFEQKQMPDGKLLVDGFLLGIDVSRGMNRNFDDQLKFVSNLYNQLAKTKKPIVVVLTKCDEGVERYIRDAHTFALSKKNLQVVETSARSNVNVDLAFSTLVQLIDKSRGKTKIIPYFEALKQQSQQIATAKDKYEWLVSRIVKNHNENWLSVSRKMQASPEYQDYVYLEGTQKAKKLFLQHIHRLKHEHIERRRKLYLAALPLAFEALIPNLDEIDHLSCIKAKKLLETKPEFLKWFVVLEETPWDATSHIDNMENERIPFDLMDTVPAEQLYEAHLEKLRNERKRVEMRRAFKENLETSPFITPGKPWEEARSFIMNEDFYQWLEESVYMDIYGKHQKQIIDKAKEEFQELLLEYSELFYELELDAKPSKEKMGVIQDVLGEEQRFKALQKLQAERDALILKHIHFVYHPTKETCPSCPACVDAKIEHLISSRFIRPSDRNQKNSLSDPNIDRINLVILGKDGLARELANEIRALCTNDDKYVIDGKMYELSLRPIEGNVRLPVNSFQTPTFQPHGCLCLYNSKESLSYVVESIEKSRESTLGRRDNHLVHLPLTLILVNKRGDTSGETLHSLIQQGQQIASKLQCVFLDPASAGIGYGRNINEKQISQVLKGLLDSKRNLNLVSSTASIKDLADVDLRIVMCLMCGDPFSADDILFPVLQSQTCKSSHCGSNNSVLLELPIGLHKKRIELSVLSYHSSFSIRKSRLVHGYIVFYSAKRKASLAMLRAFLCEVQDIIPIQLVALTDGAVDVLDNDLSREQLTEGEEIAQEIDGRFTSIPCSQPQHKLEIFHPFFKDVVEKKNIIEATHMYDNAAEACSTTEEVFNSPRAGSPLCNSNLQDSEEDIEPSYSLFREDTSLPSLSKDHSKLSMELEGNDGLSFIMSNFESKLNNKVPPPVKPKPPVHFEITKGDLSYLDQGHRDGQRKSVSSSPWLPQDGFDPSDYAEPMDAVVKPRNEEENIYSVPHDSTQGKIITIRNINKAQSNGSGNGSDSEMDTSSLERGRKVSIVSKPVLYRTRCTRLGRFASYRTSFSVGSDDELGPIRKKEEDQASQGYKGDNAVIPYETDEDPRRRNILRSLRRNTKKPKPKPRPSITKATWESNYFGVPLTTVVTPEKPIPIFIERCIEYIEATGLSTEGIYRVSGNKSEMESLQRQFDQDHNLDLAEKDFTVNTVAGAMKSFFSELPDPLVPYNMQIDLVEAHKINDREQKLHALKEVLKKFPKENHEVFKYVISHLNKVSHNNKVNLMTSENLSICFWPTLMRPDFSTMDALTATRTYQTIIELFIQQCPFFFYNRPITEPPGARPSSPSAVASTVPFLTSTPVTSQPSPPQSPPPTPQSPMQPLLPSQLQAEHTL
Chain of p190RhoGAP pY1105 peptide (Homo sapiens) (Q9NRY4 whole entry, the tested form may be a part): as the sequence (Q9NRY4 whole entry) above

In the case of p120RasGAP C-SH2 (from UniProt P20936), the Kd [1] is listed as 150 nM.

In the case of p120RasGAP N-SH2 (from UniProt P20936), the Kd [2] is given as 300 nM.

With Ac-DPSD[pY]AEPMDAVVKPRNEEENI[pY]SVPHDS-NH2 [doubly-phosphorylated p190RhoGAP-A peptide (residues 1083–1111, pY1087 and pY1105)] the dH [3] was -31.1 kcal/mol.

B1: p120RasGAP: key regulatory protein of the Ras subfamily of small guanine-nucleotide binding GTPases (protein)
chain: TAPPTNQWYHGKLDRTIAEERLRQAGKSGSYLIRESDRRPGSFVLSFLSQMNVVNHFRIIAMSGDYYIGGRRFSSLSDLIGYYSHVSSLLKGEKLLYPVAPPEPVEDRRRVRAILPYTKVPDTDEISFLKGDMFIVHNELEDGWMWVTNLRTDEQGLIVEDLVEEVGREEDPHEGKIWFHGKISKQEAYNLLMTVGQVSSFLVRPSDNTPGDYSLYFRTNENIQRFKISPTPNNQFMMGGRYYNSIGDIIDHYRKEQIVEGYYLKEPVPMQ
modifications: left off: His6, N-terminal, cleaved
In the case of B1, the “enhancement of GTPase activity of Ras” value (Ras) is listed as “two to five orders of magnitude”.
